The target in test [1] is T1, D. melanogaster Par-6 PDZ domain (residues 156-255) (D. melanogaster, UniProt O97111 156-255).
T1 sequence (looked up): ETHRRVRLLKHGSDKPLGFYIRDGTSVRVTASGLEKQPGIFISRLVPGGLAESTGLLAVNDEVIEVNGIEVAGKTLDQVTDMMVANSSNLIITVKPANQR
In words: fluorescence polarisation. A general note: Fluorescence polarisation rises when a labelled molecule tumbles more slowly, as on binding a larger partner.

Another test concerns the target T2, TMR-CGYPKHREMAVDSP (Drosophila).
T2 peptide: Ac-C(TMR)GYPKHREMAVDSP-NH2
In words: fluorescence polarisation.

By Kd is commonly meant the constant that tells how readily two partners part at equilibrium.

Regarding Ac-C(TMR)GYPKHREMAAD-NH2 [TMR-CGYPKHREMAAD], the Kd in test [1] was 15 µM.

B1: PDZ-PxxP-COOH synthetic regulatory system without decoy ([Par-6 156-255]-PPPALPPKHREMAAD) (other, D. melanogaster)
chain: ETHRRVRLLKHGSDKPLGFYIRDGTSVRVTASGLEKQPGIFISRLVPGGLAESTGLLAVNDEVIEVNGIEVAGKTLDQVTDMMVANSSNLIITVKPANQRLPPPALPPKHREMAAD
Consider B1, for which, in the test with TMR-CGYPKHREMAVDSP, the dissociation constant Kd amounted to 48 µM.
